The series deals with Lsm2/Lsm3;Lsm6/Lsm5/Lsm7;Lsm4-link-Lsm8 (human;human;human, UniProt Q9Y333;P62310;P62312;Q9Y4Y9;Q9UK45;Q9Y4Z0;O95777 …, ||). Description: gel filtration co-elution. In general terms: SEC sorts molecules by how far they enter the pores of the column.

With GGCAAUUUUUGACAGUCUCUACGGAGACUG (structured_RNA) [U4-5'Δ], the binding result is on record as “no binding”.

Values taken from article PMC12117405.
